# T1: Unr CSD789 (A756-D990) (Drosophila, UniProt B7Z0E2 756-990)
# T1 sequence (looked up): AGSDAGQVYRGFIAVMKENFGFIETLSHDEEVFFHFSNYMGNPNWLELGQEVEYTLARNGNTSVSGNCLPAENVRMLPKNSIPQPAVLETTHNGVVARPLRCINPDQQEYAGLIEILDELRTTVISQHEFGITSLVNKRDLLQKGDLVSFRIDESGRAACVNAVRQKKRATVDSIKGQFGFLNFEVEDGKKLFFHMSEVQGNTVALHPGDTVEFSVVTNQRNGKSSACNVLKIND
# T2: Unr CSD78 (A756-K922) (Drosophila, UniProt B7Z0E2 756-922)
# T2 sequence (looked up): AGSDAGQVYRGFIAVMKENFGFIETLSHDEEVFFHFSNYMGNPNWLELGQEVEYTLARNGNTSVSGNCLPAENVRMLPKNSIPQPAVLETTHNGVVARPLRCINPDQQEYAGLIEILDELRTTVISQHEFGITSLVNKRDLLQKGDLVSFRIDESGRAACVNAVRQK
# B1: pAbp RRM3 (G176-A263) (domain or fragment)
# chain: not shown
# Experiments:
# [1] = biological target: T1, Unr CSD789 (A756-D990); assay: NMR titration
# [2] = biological target: T2, Unr CSD78 (A756-K922); assay: NMR titration
binder,measurement,setting,value
B1,binding result,[1],binds
same,binding result,[2],binds

# From paper PMC9976900 (Nucleic Acids Research, 2022)
